The source of these data is US20150118213A1 (OMRIX BIOPHARMACEUTICALS, published 2015).

The target of experiment [1] is T1, Fluorescein-labeled cyclic gamma-loop derived peptide (disulfide 1-12; also: fluorescein label, site not given here).
T1 construct: also called fluorescent gamma loop peptide
T1 peptide: CKETWTANVGKC
Description: peptide microarray, immobilised 15-mer probed with fluorescein-labelled cyclic gamma-loop peptide; fluorescence scale 0-65535. The source says: Peptides were synthesized using SPOT synthesis (Wenschuh H, et al. (2000). Coherent membrane supports for parallel microsynthesis and screening of bioactive peptides. Biopolymers 55:188-206) and were chemoselectively immobilized onto functionalized glass slides as described (Panse S, et al. (2004) Profiling of generic anti-phosphopeptide antibodies and kinases with peptide microarrays using radioactive and fluorescence-based assays. Mol Divers 8:291-299.2.). Each peptide was printed in triplicates onto the microarray. For binding studies, 100 ng of purified thrombin (Omrix biopharmaceuticals) were directly labeled with DyLight 650 (DyLight® Microscale Antibody Labeling Kits, Thermo Scientific, #84536) and diluted in blocking buffer (SuperBlockT20 (TBS) Blocking Buffer, Thermo Scientific, #37536). The microarrays were incubated with 10 μg/ml DyLight 650-Thrombin or a Fluorescein-labeled cyclic gamma-loop derived peptide for one hour at 30° C. in a HS4800 microarray processing station (Tecan) (Masch A, et al., (2010) Antibody signatures defined by high-content peptide microarray analysis. Methods Mol Biol 669:161-172).
Microarrays were washed with 0.1% Tween-20 in 1×TBS followed by 0.05% Tween-20 in 0.1×SSC and dried in a stream of nitrogen. Each microarray was scanned using GenePix Autoloader 4200AL (Molecular Devices, Pixel size: 10 μm). Signal intensities were evaluated using spot recognition software Genepix Pro 7.0 analysis software (Molecular Devices). For each peptide, the mean signal intensity of the three triplicates was extracted. Further evaluation and representation of results was performed using the statistical computing and graphics software R (Version 2.11.1, www.r-project.org).
One array included peptides based on the thrombin sequence. Any peptide isolated from this library may reflect possible regions in the thrombin protein that may interact with the gamma loop. […] The fluorescence for the strongest binding candidates (hits) was quantified on an arbitrary scale of 0-65535 (2¹⁶). Thrombin activity was assessed as described in Example 1.

Experiment [2] has as its target thrombin (aqueous liquid purified and concentrated thrombin) (UniProt P00734 44-622; P00734 44-622). Description: cell-based or functional assay.

Bridges are numbered along the chain shown (N, C = ends). Where no end group is shown, it is not given here.

B1: Thr_031_CS (peptide)
peptide: NITRSGIESQLWRSR
notes: Thrombin derived 15-mer in which Cysteine residues have been replaced by Serine
B1: the “Binding intensity of gamma loop” value in experiment [1] is 40800 arbitrary units.
For KETWTANVGK [linear gamma peptide (SEQ ID NO:1)], the “inhibition of thrombin clotting activity at 0.5 mM peptide” value in experiment [2] was about 20%.

B2: Thr_069 (peptide)
peptide: WCYVAGKPGDFGYCD
notes: 15-mer from the thrombin derived peptide array; also called thrombin derived peptide Thr-069
B2: in experiment [1], the “Binding intensity of gamma loop” value was found to be 50600 arbitrary units.

B3: Rnd_inter_155 (peptide)
peptide: SHNQRFVTYLGSKLG
notes: 15-mer from the random peptide array; also called Rnd155; Random2
In the case of B3, the “Binding intensity of gamma loop” value in experiment [1] was found to be 19500 arbitrary units.

B4: Thr_032_CS (peptide)
peptide: SGIESQLWRSRYPHK
notes: as for B1
In the case of B4, the “Binding intensity of gamma loop” value in experiment [1] was determined as 35100 arbitrary units.

B5: Thr_136_CS (peptide)
peptide: RIRITDNMFSAGYKP
notes: as for B1
For the molecule B5, the “Binding intensity of gamma loop” value in experiment [1] was 25300 arbitrary units.
Take CKETWTANVGKC (disulfide 1-12) [cyclic gamma peptide]: in experiment [2], the “inhibition of thrombin clotting activity at 0.5 mM peptide” value was about 7%.

B6: Thr_111 (peptide)
peptide: ISMLEKIYIHPRYNW
notes: 15-mer from the thrombin derived peptide array
With B6, the “Binding intensity of gamma loop” value in experiment [1] is 32800 arbitrary units.

B7: Rnd_inter_316 (peptide)
peptide: LGNKKFVSGSRFVST
notes: 15-mer from the random peptide array; also called Rnd316; Rnd 316
Take B7: the “Binding intensity of gamma loop” value in experiment [1] is 26600 arbitrary units.
